{
  "source": "paper PMC2670837",
  "about": "“Staphylococcus aureus immunodominant surface antigen B is a cell-surface associated nucleic acid binding protein”",
  "molecules": {"B1": {"name": "icaUTR6 (ssRNA)", "RNA": "GUUUAAUUAUAACAACAAUCUAUUGCA"}},
  "key": {"[1]": {"molecular_target": "T1, IsaB (recombinant, untagged) (Staphylococcus aureus 10833) (UniProt Q9LAB5)", "T1 sequence": "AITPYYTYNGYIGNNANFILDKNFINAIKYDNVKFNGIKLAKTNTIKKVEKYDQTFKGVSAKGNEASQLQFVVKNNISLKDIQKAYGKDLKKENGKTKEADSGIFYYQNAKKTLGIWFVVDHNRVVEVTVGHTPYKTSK", "experiment": "SPR", "conditions": "EMSA: 20 mM HEPES, 1 mM DTT, 20 mM KCl, 200 ug/ml BSA, 10% glycerol, room temperature, 10 min, SPR: 0.33x HBS-EP + non-specific binding inhibitor, SA chip …"}, "[2]": {"molecular_target": "T2, IsaB (recombinant, untagged) (Staphylococcus aureus 10833, UniProt Q9LAB5 37-175)", "T2 sequence": "T1 sequence", "experiment": "EMSA; 240 pmol-3.84 nmol IsaB; shift abolished by salmon sperm DNA or yeast tRNA, not by dNTPs; EMSA: 20 mM HEPES, 1 mM DTT, 20 mM KCl, 200 ug/ml BSA, 10% glycerol, room temperature, 10 min; SPR: 0.33x HBS-EP + non-specific binding inhibitor, SA chip, Biacore T100; pull-down: 10 mM HEPES, 60 mM KCl, 4 mM MgCl2, 0.1 mM EDTA, 0.1 mg/ml BSA, 0.25 mM DTT, on ice; pH not stated", "conditions": "protein: recombinant; label: Alexa Fluor 594 (ULYSIS)"}},
  "data": [
    {"molecule": "ATTGVGTTATCAATAATCTTA / GGTGGGATCCTTGAAGGATAAGATTA", "values": [
      {"measurement": "Kd (M (unit not given))", "setting": "[1]", "result": "8.1e-09"}
    ]},
    {"molecule": "ATTGVGTTATCAATAATCTTA [BioticaPRO (ssDNA SPR bait; identity inferred)]", "values": [
      {"measurement": "Kd (M (unit not given))", "setting": "[1]", "result": "1.08e-08"}
    ]},
    {"molecule": "TNGUGCAAUUACAAAUAUUUCCGUUUAAUUAUAACAACAAUCUAUUGCA [WTUTR(RNA) (RNA SPR bait; identity inferred)]", "values": [
      {"measurement": "Kd (M (unit not given))", "setting": "[1]; ribonucleotides with 3' terminal deoxy GCA", "result": "1.65e-08"}
    ]},
    {"molecule": "B1", "values": [
      {"measurement": "binding result", "setting": "[2]", "result": "binds"}
    ]}
  ]
}
